{"source": "paper PMC10393992", "about": "(Nature Communications, 2023)", "proteins": {"B1": {"name": "His-CIP4-HR1 (domain or fragment, Mus musculus, UniProt Q8CJ53-3 339-425, looked up)", "chain": "PPEQQRKRLQQQLEERNRELQKEEDQREALKKMKDVYEKTPQMGDPASLEPRIAETLGNIERLKLEVQKYEAWLAEAESRVLSNRGD", "notes": "CIP4, Mus musculus, HR1, a.a; 339-425; numbers count on: UniProt Q8CJ53-3; also called homology region 1 of CIP4; source: E. coli BL21-CodonPlus (DE3)-RIL, purified (Ni-NTA agarose, dialysis)"}}, "target": "the molecule itself", "experiment": "SEC; Superdex 75 10/300 GL; 20 mM NaCl, 25 mM HEPES, 0.2 mM 2-mercaptoethanol; size from a calibration curve of marker proteins"}
{"protein": "B1", "values": [{"measurement": "stoichiometry N", "value": 2}]}
